B1: human flotillin-1 with a C-terminal 3× FLAG tag (natural protein, UniProt O75955 1-427, looked up)
chain: MFFTCGPNEAMVVSGFCRSPPVMVAGGRVFVLPCIQQIQRISLNTLTLNVKSEKVYTRHGVPISVTGIAQVKIQGQNKEMLAAACQMFLGKTEAEIAHIALETLEGHQRAIMAHMTVEEIYKDRQKFSEQVFKVASSDLVNMGISVVSYTLKDIHDDQDYLHSLGKARTAQVQKDARIGEAEAKRDAGIREAKAKQEKVSAQYLSEIEMAKAQRDYELKKAAYDIEVNTRRAQADLAYQLQVAKTKQQIEEQRVQVQVVERAQQVAVQEQEIARREKELEARVRKPAEAERYKLERLAEAEKSQLIMQAEAEAASVRMRGEAEAFAIGARARAEAEQMAKKAEAFQLYQEAAQLDMLLEKLPQVAEEISGPLTSANKITLVSSGSGTMGAAKVTGEVLDILTRLPESVERLTGVSISQVNHKPLRTA

Data set [1] concerns the molecule itself. The experiment in a line: cryo-EM structure.
Data set [2] has as its target B1. The experiment in a line: cryo-EM structure.

Turning to B1, in data set [1], the binding result was “binds”.

B2: human flotillin-2 (as in the purified complex used for cryo-EM) (natural protein, UniProt Q14254 1-428, looked up)
chain: MGNCHTVGPNEALVVSGGCCGSDYKQYVFGGWAWAWWCISDTQRISLEIMTLQPRCEDVETAEGVALTVTGVAQVKIMTEKELLAVACEQFLGKNVQDIKNVVLQTLEGHLRSILGTLTVEQIYQDRDQFAKLVREVAAPDVGRMGIEILSFTIKDVYDKVDYLSSLGKTQTAVVQRDADIGVAEAERDAGIREAECKKEMLDVKFMADTKIADSKRAFELQKSAFSEEVNIKTAEAQLAYELQGAREQQKIRQEEIEIEVVQRKKQIAVEAQEILRTDKELIATVRRPAEAEAHRIQQIAEGEKVKQVLLAQAEAEKIRKIGEAEAAVIEAMGKAEAERMKLKAEAYQKYGDAAKMALVLEALPQIAAKIAAPLTKVDEIVVLSGDNSKVTSEVNRLLAELPASVHALTGVDLSKIPLIKKATGVQV
B2: the “stoichiometry N” value in data set [2] was 44 protomers (22 flotillin-1 and 22 flotillin-2).

One may read the stoichiometry N as the number of molecules, sites or subunits per partner or assembly.

Source of the values: paper PMC13000311 (Nature Communications, 2026).
